Source: the DeepSol protein solubility set

Assay: soluble on expression in E. coli; label from the status in PepcDB or PDB records

| Sequence | soluble on expression in E. coli |
| --- | --- |
| MAQSKPAYKVADIKLADFGRKEIILAENEMPGLMAMRSKYGPSQPLKGARIAGCLHMTIQTAVLIETLTALGAEVQWSSCNIFSTQDHAAAAIAQTGVPVYAWKGETDEEYEWCIEQTIVFKDGQPLNMILDDGGDLTNLVHAKYPQYLAGIRGLSEETTTGVHNLAKMLAKGDLKVPAINVNDSVTKSKFDNLYGIRESLPDGIKRATDVMLAGKVAVVAGYGDVGKGSAASLKAFGSRVIVTEIDPINALQAAMEGYEVTTLEEAAPKANIIVTTTGCKDIVTGKHFELLPNDAIVCNVGHFDCEIDVKWLNTNATKKDTIKPQVDRYTLKNGRHVILLAEGRLVNLGCATGHPSFVMSNSFTNQVLAQVELWTKFGTPQEYKLGLYVLPKTLDEEVAYLHLAQLGVKLTKLSDEQASYLGVPVAGPYKPDHYRY | not soluble |
| MKTNEVLENIKARRSVRAYTDRQVSEEDLQAILEAATFAPSGMHLETWHFTAIQNADKLAELNERIKGAFAKSDEPKLQERGHSKAYCCYYHAPTLVIVSNEPTQWWAGMDCACAIENMFLAAHSLGIGSCWINQLGTTCDDPEVREFISSLGVPENHKVYGCVALGYADPKISLREKMVKAGTVTVVR | not soluble |
| MRALAKLAPEEGLTLVDRPVPEPGPGEILVRVEAASICGTDLHIWKWDAWARGRIRPPLVTGHEFSGVVEAVGPGVRRPQVGDHVSLESHIVCHACPACRTGNYHVCLNTQILGVDRDGGFAEYVVVPAENAWVNPKDLPFEVAAILEPFGNAVHTVYAGSGVSGKSVLITGAGPIGLMAAMVVRASGAGPILVSDPNPYRLAFARPYADRLVNPLEEDLLEVVRRVTGSGVEVLLEFSGNEAAIHQGLMALIPGGEARILGIPSDPIRFDLAGELVMRGITAFGIAGRRLWQTWMQGTALVYSGRVDLSPLLTHRLPLSRYREAFGLLASGQAVKVILDPKA | soluble |
| MRFIPLIVARPEVQMAIDEAILIARSEGRVPDTVRLYVFKPSSVTIGRFQSVRYDVNLEKAKELGIPVVRRITGGGSVFHDEYGEITYSVVISEDYHPMLKNIQDSYRFLAGPLVDALKDLGIEAEFSGLNDIVVRGKKISGSAQTRRRGIILQHGTLMYATRLEILGSVLKVSKEKLKDKGVKSIFERVTTLEREGIKVGRNEMYEVLRNSFFRAFPLDEGELTEYELELVEKLIEERYGNDKWNFQKLEHHHHHH | soluble |
| MIEKVYCQEVKPELDGKKVRLAGWVYTNMRVGKKIFLWIRDSTGIVQAVVAKNVVGEETFEKAKKLGRESSVIVEGIVKADERAPGGAEVHVEKLEVIQAVSEFPIPENPEQASPELLLDYRHLHIRTPKASAIMKVKETLIMAAREWLLKDGWHEVFPPILVTGAVEGGATLFKLKYFDKYAYLSQSAQLYLEAAIFGLEKVWSLTPSFRAEKSRTRRHLTEFWHLELEAAWMDLWDIMKVEEELVSYMVQRTLELRKKEIEMFRDDLTTLKNTEPPFPRISYDEAIDILQSKGVNVEWGDDLGADEERVLTEEFDRPFFVYGYPKHIKAFYMKEDPNDPRKVLASDMLAPEGYGEIIGGSQREDDYDKLLNRILEEGMDPKDYEWYLDLRRYGSVPHSGFGLGVERLVAWVLKLDHIRWAALFPRTPARLYP | soluble |
| MSLSNDRYSMSFTTGSLFHRESVKLAALYLDLGDWNSVRDKVIAENLLQTRTLNTLKRVCREIISRLRTMNPGELDFLVEGSHQEQAYLLWLAVCRRYRFIADFAVEVLRERYITLKADLTHEDFDSFFNRKSEWHLELDEITPATRSKLRQVLFKILREADLLAANNMINAAMLSPRLSDVIHRGSRRDVSYFPLFESDLKGMAKEGHHHHHH | soluble |
| MEDPVTGPEEVSGQEQGSLTVQCRYTSGWKDYKKYWCQGVPQRSCKTLVETDASEQLVKKNRVSIRDNQRDFIFTVTMEDLRMSDAGIYWCGITKGGLDPMFKVTVNIGPVPT | soluble |
| MYNDDELTEFMDFLVEQTKDSIYPMVAAKVFKQFPNRRLIPKDKRYQRFVLQLAPKMNDWNNYSIEARIRLMYALRGKVEDDFLARIEAHGTVQLNEKQRISKFTANDGTFFLEDDRKRLSLDATRLEFVKLMGFLIEKTKDAVEPLPNTKLIFQEFSQIEPVKKPNDTDIMYKFRSSLAPYMDKWNDYSIEDRVRLMFALGGKIKDGFLRTIETHGTLQLDDKRRITKYVSNDGNFKLEGIRRNVHKKEATGPEYTRFMDFLIKTTKEAVEPMRVWLVHNEFKRQEGRKFSKSGYAKRFHKKLAPNMSKWTNYKIEERTRMMFAMKGKVESDFLAQIEESGKVQLDENHLIVKYTSKNRKIKLGGETRLVEKKKRKSTNYHKMHQKRRKIIRSVTDETSLVAKWKRKSDSYYEMYQKRRKIGEKELSDTAEVEEVAPYDSDYGNVYVENLEAEDQDTQLNPFNAMSDLTTDGPSSNAHDLTMWPNDDPKQEPVFENIFIQNQYFPPEIEEVPNQGVYHVEPETKLSYINTNPGSSVTESGGIKLHKFLNLLELILTSLESDTLDDLLNDIEGIRVRINDEILPPELVITALQTFLLGITRKSRSAASAENKSSHECLRIFKYSLPWLRSPLLWELQQRVEEEIESHVIGGKIILVADVQQGIRNILFAVSN | not soluble |
| MDPSLLRERELFKKRALSTPVVEKRSASSESSSSSSKKKKTKVEHGGSSGSKQNSDHSNGSFNLKALSGSSGYKFGVLAKIVNYMKTRHQRGDTHPLTLDEILDETQHLDIGLKQKQWLMTEALVNNPKIEVIDGKYAFKPKYNVRDKKALLRLLDQHDQRGLGGILLEDIEEALPNSQKAVKALGDQILFVNRPDKKKILFFNDKSCQFSVDEEFQKLWRSVTVDSMDEEKIEEYLKRQGISSMQESGPKKVAPIQRRKKPASQKKRRFKTHNEHLAGVLKDYSDITSSK | not soluble |
| MGSDKIHHHHHHMTQSPDLQAVLDYADAHMNDSLARLFDLVRIPSVSTVPAHAGDCRAAAQWLSDQLNDLGFDASVRPTGGHPMVVAHQTDADGPHVLFYGHYDVQPVVPLELWKTDPFEPTLEPQPNGDTHITGRGASDDKGQLLTFIEACRAWKAVTGRLPIKVSMLFEGEEESGSQSLGPFLEQTAEELRADVMMVCDTDMWDRDTPAITTMLRGLVGEEFTITTADRDLHSGMFGNAARNALQVASDAIAGLRGPDGGVTLPGFYDGVEDLAPEIKAQWKSLPFDQEGFLSDVGLSLPAGEDAYSIMEQIWARPSCEIHGVIGGYTDEGFKTVIPAKATAKVSFRLVAGQDPARIREAFRAHIRAYVPKDCSVEFTSHGASPALSLPLDSPYLTATREALSQEWGTEAALAGTGGSIPIVGEFKRQLGMDTLLVGFARFDNRIHSPNEKYDLSSFTGGIRSFVRVLAALSEIEAAAAP | not soluble |
| MGSDKIHHHHHHMNTLKKITNNISKVIIGKDESIELAAIALIAKGHILLEDVPGTGKTTLAKSLAKSVDAKFQRIQFTADTLPGDVIGLEYFNVKESDFKTRLGPIFANIVLVDEINRAVPRTQSSLLEVMEERTVTIAKQTHSLPEPFLVIATQNPLESAGTFPLPDAQLDRFLLTIRQGYPTREAEKEMMNRFQMNDPLETLHSIISSEEIITMQKRAREVLVGNDVQDYLLEIIEATRKHELIEIGVSPRGTLAFMRAIQARAILNERDYCTPDDIKQLAASICTHRLTLTIEGEMKTTKEQIMKEILHTIDVPVENVR | not soluble |
| GVALGATRVIYPAGQKQVQLAVTNNDENSTYLIQSWVENADGVKDGRFIVTPPLFAMKGKKENTLRILDATNNQLPQDRESLFWMNVKAIPSMDKSKLTENTLQLAIISRIKLYYRPAKLALPPDQAAEKLRFRRSANSLTLINPTPYYLTVTELNAGTRVLENALVPPMGESAVKLPSDAGSNITYRTINDYGALTPKMTGVME | soluble |
| MSLAFNYDEYLRVDKMPTQWCWGCGDGVVLKCIIRAIEKLGWNMDDVCLVSGIGCSGRMSSYVNCNTVHTTHGRAIAYATGIKLANPSKHVIVVSGDGDTLAIGGNHTIHGCRRNIDLTHIVINNFIYGLTNSQTSPTTPKGFYTVTAQFGNIDPNFDACELTKAAGASFVARGNVIEANKLENLIYKALAHKGYSFVDVFSNCHINLGRKNKMGEAVAMLDWIKNRVVDKAKFESMDFEERKDKFPTGILHEDNSQPEYCHAYEEVRRAAKEKRMVDLGALKEGHHHHHH | not soluble |
| MTVIQKSSPTVKGVKTTTSDCTERRHSSSSPCKMSQNGSSGYYEGDVLLDDDALVSMPEATLIECFGNLAVTKRPAHLRPPAAFCLPFVSMNNDLTSGHALKHITLTSVFDALHPYVAMPYINRMDICSAMNVYWIRNCLEAEQSDLFHRFALEMQVHLSACFGCRVVLDIYGSTRNGFGTRFCDVDMSLSFSPSPPSWATNSDRVMRAVAKALVDFPKAVDERYVNAKVPIVRFRSSDMDMEADISYKNDLALHNTQLLQQYCKWDPERLPTLGVWVKAWAKRSGVGDASKGSLSSYAWIVMLIHYLQQVEPIPVLPCLQEMNHQKSENVYVQGYNTYYWKFVDTARTRRCRASVVDLFVGFLDYYATYFDYSTNVIQMVSKKLEFKPDRWCKYPMCIADPFETDHNLAQGVDMPMFEYIRSCMEHSKKVFTDRRMRSEFLSGYGFDVDEFDARHRGEMNMEMASQFGEFLLHKCIMVKQAPNRQFRDRSMSQSTSISNTSSISSSG | soluble |
| MAHHHHHHMYNILQFVLKAYSIQNEEPSCDVENVKDLLNDQLCYVLYNITNYSSKYQWILILWAPEKNSILIDDIHENKEKKNNFIHIVDKEIYKYNNASKKINKLLYYSFKQNFLDIIFNNYDIPLFEINNFVMLEKCIHDCNNKYYNYTNCPTLLNREKTKPKNDSFDIYNQYNLQKYYLLNIQLRSINNIIILNESSLCHDMKRLLEEPNICLNLFYIDVHNYKIISTHLNIDNIEQVHSIIKENKIFYVIYKVLDTYTFFYICNEICTNTKQKFLYSFFKPYLLEYLKKIKNIPIFLSIELSKTKHLIRFINADLKKNKNKNSN | soluble |
| MLSRTLRPISKVLRSSAKYSQAAGLPLNEGSPAPLPSEDRAISAKVSSLVEEIANLSLLDVSDLNWALKKRLNIPDQPLMAAAAAAPAAQAEAEAASDVPQKMTFTVKLTKFDDTKKIAIIKEIRNAIPGLNLVQAKKFVETAPVNVKEDLGKAEADELKAILEKAGATIEIV | not soluble |
| MGSDKIHHHHHHMSMPSIDIEPTPRTLRTLALFDLDHTLLDVDSDYLWGEYIVKHNLVDEAQYRTANQKFYNDYIEGRLDATEYNEFVAQFLSSLPMGRLHELREDYIKSEIEPHIRPKAMEVLCQHVEEGHDVVIISATNDFVVSAIAKRFGIEDGNVLSTPLEIKDKRYTGKLTDKPNFKEGKIYHLDKWIGKQQLAGIHFNKTYAYSDSKNDIPLLEWADVAICVSPDAALHAHALSHRWAVEDWSI | not soluble |
| MGSDKIHHHHHHMSAELPLVFSVTSGKGGVGKTNMSVNIACCLSRMGKRVVLLDADLGLANVDVVLGLAPPRNLFHLFHEGADLGSILCEMPYGFRILPASSGVGEMLSLSTGQKLDLLEAMDVLEDSVDYLLVDTGAGINDNVLYFNIAAQERIVVLTPEPTSLTDAYALIKVMKLNHGVEHFKVLVNMAGDMKAAREVFSRLYKACDHFLSGVSLDLLGYVPRDRTVRRAVVEQTPFCVLDSRSPASLAVQKVAETVQTWDVSASLDGNIKFFWKKLLFR | not soluble |
| MSLSKLGYIPNQAARTLITNKTLTIGLIQKSSAPEIRQNPFNSDVLNGINQACNVRGYSTRMTVSENSGDLYHEVKTMIQSKSVDGFILLYSLKDDPIEHLLNEFKVPYLIVGKSLNYENIIHIDNDNIDAAYQLTQYLYHLGHRHILFLQESGHYAVTEDRSVGFKQYCDDVKISNDCVVIKSMNDLRDFIKQYCIDASHMPSVIITSDVMLNMQLLNVLYEYQLRIPEDIQTATFNTSFLTENATPSQTSVNINPDVLGFTAGNTIIDVLRNETISFREKLISTQIVERVSTTKIEGHHHHHH | soluble |
